# Patent publication US20180086825A1 (published 2018)
# T1: Ang2 protein (R&D systems) (human, UniProt O15123 19-496, limits assumed)
# T1 sequence: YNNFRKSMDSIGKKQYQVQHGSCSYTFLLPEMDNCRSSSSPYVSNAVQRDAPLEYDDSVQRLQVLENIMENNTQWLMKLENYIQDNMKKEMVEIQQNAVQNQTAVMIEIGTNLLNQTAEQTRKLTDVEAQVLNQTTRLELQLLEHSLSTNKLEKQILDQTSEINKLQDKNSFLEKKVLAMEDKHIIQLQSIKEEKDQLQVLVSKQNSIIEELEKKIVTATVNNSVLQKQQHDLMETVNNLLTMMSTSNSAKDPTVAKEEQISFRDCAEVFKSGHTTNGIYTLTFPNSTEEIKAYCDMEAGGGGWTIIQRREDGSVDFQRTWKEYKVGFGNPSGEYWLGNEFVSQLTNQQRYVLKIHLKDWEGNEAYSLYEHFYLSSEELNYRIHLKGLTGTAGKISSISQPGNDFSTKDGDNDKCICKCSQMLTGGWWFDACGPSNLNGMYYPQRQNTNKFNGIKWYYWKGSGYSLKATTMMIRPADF
# B1: SAIT-ANG2-AB-m10D6 (antibody, V domains shown)
# VH: DVQLQESGPGLVKPSQSLSLTCTVTGYSITSDYAWNWIRQFPGNKLEWMGYINYSGNTDYNPSLKSRSSITRDTSKNQFFLQLNSVTTGDTATYYCARGNFEGAMDYWGQGTSVTVSS
# VL: SIVMTQTPKFLLVSAGDRVTITCKASQSVSNDVAWYQQKPGQSPKLLIYYASNRYPGVPDRFTGSGYGTDFTFTISTVQAEDLAVYFCQQDYSSPWTFGGGTKLEIK
# Target: T1, Ang2 protein (R&D systems)
# Experiment: cell-based or functional assay
binder,measurement,value
B1,"Tie2 phosphorylation level (pTyr/Tie2 ratio, HUVEC, 60 nM antibody with Ang2)",180%
